According to US20180244795A1 (DEBIOPHARM INTERNATIONAL S A, published 2018):

Tests used:
[1] = target: T1, hCD37-ECD-Fc (amino acids 107 to 235 of human CD37 fused to murine IgG2a Fc-domain) (human); assay: Western blot after denaturing, reducing SDS PAGE (Gel C), primary 1B11-2, secondary anti-mouse F(ab)2-HRP
T1 construct: Produced in HEK-293T cells
T1 chain: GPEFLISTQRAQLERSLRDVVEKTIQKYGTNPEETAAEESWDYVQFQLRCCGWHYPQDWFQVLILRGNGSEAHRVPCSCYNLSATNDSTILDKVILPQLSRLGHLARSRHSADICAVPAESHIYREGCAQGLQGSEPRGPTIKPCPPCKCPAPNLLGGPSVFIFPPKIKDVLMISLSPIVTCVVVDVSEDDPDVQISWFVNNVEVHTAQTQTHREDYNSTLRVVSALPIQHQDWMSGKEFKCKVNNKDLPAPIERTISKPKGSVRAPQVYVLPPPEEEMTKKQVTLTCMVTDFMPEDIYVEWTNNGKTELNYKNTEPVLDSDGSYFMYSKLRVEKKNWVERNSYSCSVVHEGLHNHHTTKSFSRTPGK
Procedure: The ability to recognize different preparations of Fc-fused CD37-ECDs was tested in denaturing SDS PAGE followed by Western blotting for 1B11-2 (left panel), in direct comparison with a commercially available anti-CD37 antibody (Leica; right panel). Fc-fused CD37-ECD preparations were denatured by incubation in Laemmli buffer containing 70mM β-mercapto-ethanol at 100° C. for 10 min, and were separated by SDS polyacrylamide gel electrophoresis, followed by electrophoretic transfer to PVDF membranes. Membranes were blocked with 5% non-fat milk in Tris-buffered saline with 0.1% Tween-20 (TBST) for 1 hour at room temperature. Primary antibodies were applied overnight, followed by detection with secondary anti-mouse F(ab)₂ conjugated to horse radish peroxidase for 1 h at room temperature. Blots were developed using enhanced chemiluminescence detection following standard procedures. While the Leica antibody recognizes all three Fc-CD37 ECD preparations, the 1B11-2 antibody of the invention recognizes only hCD37-ECD-Fc and hCD37-Fc-LAGA, but not hCD37-ECD-S2-Fc. The hCD37-ECD-S2-Fc construct is missing the S1 segment (amino acids 110-137) of the CD37 ECD. Thus, a region of amino acids 110-137 is critical for epitope recognition by 1B11-2, but not by the Leica antibody.

[2] = target: T2, Human CD37 (human, UniProt P11049 1-281); assay: IHC on FFPE CD37-positive samples (human tonsil, Daudi, Ramos, Namalwa cells)
T2 construct: Endogenous CD37 in formalin fixed paraffin embedded Daudi, Ramos and Namalwa cell pellets and human tonsil (IHC); also called GP52-40; tetraspanin-26
T2 sequence: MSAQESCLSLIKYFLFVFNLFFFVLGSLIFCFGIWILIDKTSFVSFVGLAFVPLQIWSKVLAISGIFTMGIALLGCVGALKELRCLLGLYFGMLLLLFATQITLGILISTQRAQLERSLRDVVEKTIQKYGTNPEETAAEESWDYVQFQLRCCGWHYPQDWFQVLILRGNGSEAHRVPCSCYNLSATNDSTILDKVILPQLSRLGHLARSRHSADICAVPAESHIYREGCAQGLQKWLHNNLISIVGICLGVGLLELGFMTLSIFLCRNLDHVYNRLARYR
Procedure: Slides were incubated with ImmunoGen, Inc. generated 1B11-2 antibody, Leica/Novocastra NCL-CD37 antibody (clone CT1) or Leica/Novocastra muIgG1 control antibody at varying concentrations for 15 minutes. Bound antibodies were detected by incubation with the Leica Bond Refine detection system. Following the application of the antibodies, slides were incubated with Post Primary Reagent (rabbit anti-mouse IgG) for 8 minutes, Polymer (goat anti-rabbit polymer) for 8 minutes, and DAB (3,3-diaminobenzidine tetrahydrochloride) for 10 minutes. […] Slides were counterstained with hematoxylin for 5 minutes.
Purified antibody from clone 1B11-2 diluted at 8.4 μg/mL, 4.2 μg/mL, and 2.1 μg/mL in Leica Antibody Diluent (Tris-buffered saline, surfactant, and protein stabilizer with 0.35% ProClin™ 950) was used to stain CD37-positive control samples (human normal tonsil, Daudi cells, Ramos cells, and Namalwa cells). The antibody was evaluated for CD37 specificity as measured by acceptable membrane staining and specificity in CD37-positive samples. This clone was also compared with the NCL-CD37 mouse mAb (clone CT1) diluted to 4.2 μg/mL in Leica Antibody Diluent using the same CD37 positive human tissue and cells. […] A suitable staining concentration of 4.2 μg/mL was experimentally determined for 1B11-2.

[3] = target: T3, hCD37-ECD-S2-Fc (amino acids 107 to 109 and 138 to 235 of human CD37 fused to murine IgG2a Fc-domain) (human); assay: ELISA, native hCD37-ECD-S2-Fc coated on the plate, purified antibody titrated
T3 construct: Produced in HEK-293T cells; It lacks the S1 segment (amino acids 110-137) of the CD37 large extracellular domain; also called truncated hCD37-ECD-S2-Fc protein
T3 chain: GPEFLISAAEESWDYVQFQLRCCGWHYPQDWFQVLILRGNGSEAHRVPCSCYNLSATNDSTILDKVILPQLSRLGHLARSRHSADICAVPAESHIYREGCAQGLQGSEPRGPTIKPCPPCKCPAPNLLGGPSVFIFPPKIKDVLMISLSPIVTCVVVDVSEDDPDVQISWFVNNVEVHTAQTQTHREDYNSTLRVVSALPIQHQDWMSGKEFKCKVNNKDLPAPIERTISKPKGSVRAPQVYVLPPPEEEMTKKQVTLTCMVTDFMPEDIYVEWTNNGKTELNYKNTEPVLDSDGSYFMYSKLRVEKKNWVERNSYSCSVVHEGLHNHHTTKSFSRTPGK
Procedure: (§1) Antibody from 1B11-2 was purified using standard protein-A chromatography. An anti-CD37 antibody sold by Leica Biosystems (product code NCL-CD37) was used for comparison. The binding of the anti-CD37 antibodies was examined by ELISA with recombinant CD37 proteins used as the antigen. Each recombinant protein was immobilized at approximately 25-100 ng/well on microtiter plates in Sodium bicarbonate coating buffer (Sigma-Aldrich) using either native or denatured conditions as described above. Plates were washed once with PBS supplemented with 0.05% Tween-20 and blocked with PBS supplemented with 1% bovine serum albumin (BSA). Plates were washed three times with PBS supplemented with 0.05% Tween-20 and purified antibodies were added to the plates. Plates were incubated for one hour at room temperature, washed three times as above, and incubated with HRP-labeled goat anti-murine secondary antibody (Jackson ImmunoResearch, diluted at 1:5,000) for one hour at room temperature. The plates were washed three times as above, and bound HRP-conjugated antibody was detected by adding the HRP-substrate TMB (Bio-FX). Plates were incubated for approximately 10 minutes, and then color development was stopped with stop solution (Bio-FX). Absorbance at 450 nm was measured for each plate in a multiplate reader. Representative results are shown in FIG. 2 for binding to native hCD37-Fc-LAGA and hCD37-LEL. […]

[4] = target: T4, hCD37-Fc-LAGA (amino acids 107 to 235 of human CD37 fused to human IgG1 Fc-domain) (human); assay: ELISA, native hCD37-Fc-LAGA coated on the plate, purified antibody titrated (left panel)
T4 construct: Produced in HEK-293T cells
Procedure: as §1

binding result [1]: binds | binding result [2]: binds | binding result [3]: no binding (tested: 1e-7 M) | EC50 (read off the curve) [4]: ~0.1 nM
B1: muCD37-1B11-2 mouse monoclonal anti-human CD37 antibody (antibody, mouse IgG1, kappa, V domains shown)
VH: EVQLLQSGPELVKPGASVKISCKASGYSFTGYFMNWVIQSHGKGLEWIGRINPYNGDTFYNQKFKGKATLTVDKSSTTAHMELLSLTSEDSAVYYCGSRGIVASSRFFDVWGAGTSVIVSS
VL: SIVMTQTPKFLLVSAGDRVTITCKASQGVSNDVDWYQQKPGQSPKLLIYYASNRYTGVPDRFTGSGYGTDFTFSISTVQAEDLAVYFCHQDYTSPTFGGGTKLEIKR
notes: Murine IgG1/kappa from hybridoma; also called antibody 1B11-2; CD37 1B11-2 Mouse mAb
